The text below walks through data of US20230060095A1 (Regeneron, published 2023).

Assay [1] has as its target T1, soluble HLA:A2:PRAME (425-433) tetramer (human).
T1 construct: Commercial tetramer (MBL International); construct limits, biotin tag and streptavidin/fluorophore not described; also called PRAME/HLA tetramer reagent; PRAME (425-433)/HLA-A2
Description: flow cytometry, soluble pMHC tetramer on CHO cells expressing the TCR.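 Further: CHO cells transfected with vectors encoding full-length paired TCR alpha and beta chains, stained with PRAME/HLA tetramer and read by flow cytometry, each value reflects one listed TCR.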 A general note: A flow cytometer gives signals particle by particle.

Assay [2] concerns the target HLA-A2/PRAME (425-433) on HLA-A2*01 HEK293T cells pulsed with PRAME 425-433 peptide (human). As to the kind of experiment: cell-based or functional assay.
The target of assay [3] is T2, peptide on HLA-A*02:01 (human).
T2 peptide: SLLMWITQC
As to the kind of experiment: activation reporter or marker.

For assay [4], the target named is T3, PRAME peptide on HLA-A*02:01 (human).
T3 peptide: SLLQHLIGL
Description: multimer staining.

B1: PN42386 (TCR, V domains shown)
V domain 1: TQLLEQSPQFLSIQEGENLTVYCNSSSVFSSLQWYRQEPGEGPVLLVTVVTGGEVKKLKRLTFQFGDARKDSSLHITAAQPGDTGLYLCATNGGSQGNLIFGKGTKLSVKP
V domain 2: DAGVTQSPTHLIKTRGQQVTLRCSPKSGHDTVSWYQQALGQGPQFIFQYYEEEERQRGNFPDRFSGHQFPNYSSELNVNALLLGDSALYLCASSLQDYGYTFGSGTRLTVV
Turning to B1, in assay [1], the “Cell Frequency ≥1000 MFI, ≥1% (% tetramer positive cells in the Ag+ gate)” value is 82.2%. In assay [2], the “EC50 (µM) of peptide, AP1 luciferase reporter in Jurkat cells expressing the TCR” value (“EC50 (µM) of peptide” for short) came to 0.0271 µM. The binding result in assay [3] was “no recognition”; in assay [4], “recognises”.

B2: PN42689 (TCR, V domains shown)
V domain 1: TQLLEQSPQFLSIQEGENLTVYCNSSSVFSSLQWYRQEPGEGPVLLVTVVTGGEVKKLKRLTFQFGDARKDSSLHITAAQPGDTGLYLCAEDGGSQGNLIFGKGTKLSVKP
V domain 2: DAGVTQSPTHLIKTRGQQVTLRCSPKSGHDTVSWYQQALGQGPQFIFQYYEEEERQRGNFPDRFSGHQFPNYSSELNVNALLLGDSALYLCASSLSDYGYTFGSGTRLTVV
In the case of B2, in assay [1], the “Cell Frequency ≥1000 MFI, ≥1% (% tetramer positive cells in the Ag+ gate)” value came to 4.92%. Moreover, the “EC50 (µM) of peptide” value in assay [2] amounted to 0.0095 µM. Also, the binding result in assay [3] is recorded as “no recognition”; in assay [4] it was “recognises”.

B3: PN42498 (TCR, V domains shown)
V domain 1: TQLLEQSPQFLSIQEGENLTVYCNSSSVFSSLQWYRQEPGEGPVLLVTVVTGGEVKKLKRLTFQFGDARKDSSLHITAAQPGDTGLYLCAGDGGSQGNLIFGKGTKLSVKP
V domain 2: DAGVTQSPTHLIKTRGQQVTLRCSPKSGHDTVSWYQQALGQGPQFIFQYYEEEERQRGNFPDRFSGHQFPNYSSELNVNALLLGDSALYLCASSLVDYGYTFGSGTRLTVV
On to B3, for which, in assay [1], the “Cell Frequency ≥1000 MFI, ≥1% (% tetramer positive cells in the Ag+ gate)” value was found to be 90.3%. The “EC50 (µM) of peptide” value in assay [2] stood at 0.00242 µM. The results for the binding result in assay [3] and in assay [4] were “no recognition” and “recognises”, respectively.

B4: PN42840 (TCR, V domains shown)
V domain 1: TQLLEQSPQFLSIQEGENLTVYCNSSSVFSSLQWYRQEPGEGPVLLVTVVTGGEVKKLKRLTFQFGDARKDSSLHITAAQPGDTGLYLCAEGGGSQGNLIFGKGTKLSVKP
V domain 2: DAGVTQSPTHLIKTRGQQVTLRCSPKSGHDTVSWYQQALGQGPQFIFQYYEEEERQRGNFPDRFSGHQFPNYSSELNVNALLLGDSALYLCASSWTDYGYTFGSGTRLTVV
In the case of B4, the “Cell Frequency ≥1000 MFI, ≥1% (% tetramer positive cells in the Ag+ gate)” value in assay [1] turned out to be 52.5%. Further, the “EC50 (µM) of peptide” value in assay [2] turned out to be 0.0309 µM. The binding result is given as “no recognition” in assay [3] and “recognises” in assay [4].

B5: PN42780 (TCR, V domains shown)
V domain 1: TQLLEQSPQFLSIQEGENLTVYCNSSSVFSSLQWYRQEPGEGPVLLVTVVTGGEVKKLKRLTFQFGDARKDSSLHITAAQPGDTGLYLCAGGTSGTYKYIFGTGTRLKVLA
V domain 2: EAQVTQNPRYLITVTGKKLTVTCSQNMNHEYMSWYRQDPGLGLRQIYYSMNVEVTDKGDVPEGYKVSRKEKRNFPLILESPSPNQTSLYFCASSPGTPNYGYTFGSGTRLTVV
B5: the “Cell Frequency ≥1000 MFI, ≥1% (% tetramer positive cells in the Ag+ gate)” value in assay [1] was 4.89%. In addition, the “EC50 (µM) of peptide” value in assay [2] was determined as 1.25 µM. For the same molecule, the binding result in assay [3] is given as “no recognition”; in assay [4], “recognises”.

B6: PN42706 (TCR, V domains shown)
V domain 1: GIQVEQSPPDLILQEGANSTLRCNFSDSVNNLQWFHQNPWGQLINLFYIPSGTKQNGRLSATTVATERYSLLYISSSQTTDSGVYFCAVEASGTYKYIFGTGTRLKVLA
V domain 2: EAQVTQNPRYLITVTGKKLTVTCSQNMNHEYMSWYRQDPGLGLRQIYYSMNVEVTDKGDVPEGYKVSRKEKRNFPLILESPSPNQTSLYFCASSWGTGGYGYTFGSGTRLTVV
Regarding B6, the “Cell Frequency ≥1000 MFI, ≥1% (% tetramer positive cells in the Ag+ gate)” value in assay [1] is 24.7%. In addition, the “EC50 (µM) of peptide” value in assay [2] was 0.727 µM. Also, the binding result was “no recognition” in assay [3] and “recognises” in assay [4].

B7: PN42562 (TCR, V domains shown)
V domain 1: TQLLEQSPQFLSIQEGENLTVYCNSSSVFSSLQWYRQEPGEGPVLLVTVVTGGEVKKLKRLTFQFGDARKDSSLHITAAQPGDTGLYLCAGGPSGTYKYIFGTGTRLKVLA
V domain 2: EAQVTQNPRYLITVTGKKLTVTCSQNMNHEYMSWYRQDPGLGLRQIYYSMNVEVTDKGDVPEGYKVSRKEKRNFPLILESPSPNQTSLYFCASSPGTPNYGYTFGSGTRLTVV
B7: the “Cell Frequency ≥1000 MFI, ≥1% (% tetramer positive cells in the Ag+ gate)” value in assay [1] was determined as 92%. The “EC50 (µM) of peptide” value in assay [2] stood at 0.0281 µM. Also, the results for the binding result in assay [3] and in assay [4] were “no recognition” and “recognises”, respectively.

B8: PN42442 (TCR, V domains shown)
V domain 1: TQLLEQSPQFLSIQEGENLTVYCNSSSVFSSLQWYRQEPGEGPVLLVTVVTGGEVKKLKRLTFQFGDARKDSSLHITAAQPGDTGLYLCAGGTSGTYKYIFGTGTRLKVLA
V domain 2: EAQVTQNPRYLITVTGKKLTVTCSQNMNHEYMSWYRQDPGLGLRQIYYSMNVEVTDKGDVPEGYKVSRKEKRNFPLILESPSPNQTSLYFCASSPGTANYGYTFGSGTRLTVV
As for B8, the “Cell Frequency ≥1000 MFI, ≥1% (% tetramer positive cells in the Ag+ gate)” value in assay [1] was found to be 61.3%. For the same molecule, the “EC50 (µM) of peptide” value in assay [2] stood at 0.232 µM. Also, the results for the binding result in assay [3] and in assay [4] were “no recognition” and “recognises”, respectively.

B9: PN42561 (TCR, V domains shown)
V domain 1: DAKTTQPNSMESNEEEPVHLPCNHSTISGTDYIHWYRQLPSQGPEYVIHGLTSNVNNRMASLAIAEDRKSSTLILHRATLRDAAVYYCILRDGTGNQFYFGTGTSLTVIP
V domain 2: EAQVTQNPRYLITVTGKKLTVTCSQNMNHEYMSWYRQDPGLGLRQIYYSMNVEVTDKGDVPEGYKVSRKEKRNFPLILESPSPNQTSLYFCASSLWTGGGYTFGSGTRLTVV
As to B9, the “Cell Frequency ≥1000 MFI, ≥1% (% tetramer positive cells in the Ag+ gate)” value in assay [1] came to 80.2%. Besides, in assay [2], the “EC50 (µM) of peptide” value was determined as 0.0137 µM. In addition, the binding result in assay [3] was “no recognition”; in assay [4] it was “recognises”.

B10: PN42707 (TCR, V domains shown)
V domain 1: GESVGLHLPTLSVQEGDNSIINCAYSNSASDYFIWYKQESGKGPQFIIDIRSNMDKRQGQRVTVLLNKTVKHLSLQIAATQPGDSAVYFCAENKRDNYGQNFVFGPGTRLSVLP
V domain 2: EAQVTQNPRYLITVTGKKLTVTCSQNMNHEYMSWYRQDPGLGLRQIYYSMNVEVTDKGDVPEGYKVSRKEKRNFPLILESPSPNQTSLYFCASSFWVNTEAFFGQGTRLTVV
Take B10: the “Cell Frequency ≥1000 MFI, ≥1% (% tetramer positive cells in the Ag+ gate)” value in assay [1] was found to be 7.28%. In assay [2], the “EC50 (µM) of peptide” value is 0.0118 µM. The results for the binding result in assay [3] and in assay [4] were “no recognition” and “recognises”, respectively.

B11: PN42746 (TCR, V domains shown)
V domain 1: GESVGLHLPTLSVQEGDNSIINCAYSNSASDYFIWYKQESGKGPQFIIDIRSNMDKRQGQRVTVLLNKTVKHLSLQIAATQPGDSAVYFCAENRQDNYGQNFVFGPGTRLSVLP
V domain 2: EAQVTQNPRYLITVTGKKLTVTCSQNMNHEYMSWYRQDPGLGLRQIYYSMNVEVTDKGDVPEGYKVSRKEKRNFPLILESPSPNQTSLYFCASSLWVNTEAFFGQGTRLTVV
Take B11: the “Cell Frequency ≥1000 MFI, ≥1% (% tetramer positive cells in the Ag+ gate)” value in assay [1] stood at 4.39%. Further, in assay [2], the “EC50 (µM) of peptide” value is 0.046 µM. The binding result in assay [3] is “no recognition”; in assay [4] it was “recognises”.
